IntAct's records for PubMed 21441914

B1: Double-strand break repair protein rad32 (Schizosaccharomyces pombe (strain ATCC 38366 / 972)), Q09683 (parent)
chain: MPNDPSDMNNELHNENTIRILISSDPHVGYGEKDPVRGNDSFVSFNEILEIARERDVDMILLGGDIFHDNKPSRKALYQALRSLRLNCLGDKPCELELLSDTSLTTGDTAVCNINYLDPNINVAIPVFSIHGNHDDPSGDGRYSALDILQVTGLVNYFGRVPENDNIVVSPILLQKGFTKLALYGISNVRDERLYHSFRENKVKFLRPDLYRDEWFNLLTVHQNHSAHTPTSYLPESFIQDFYDFVLWGHEHECLIDGSYNPTQKFTVVQPGSTIATSLSPGETAPKHCGILNITGKDFHLEKIRLRTVRPFIMKDIILSEVSSIPPMVENKKEVLTYLISKVEEAITEANAQWYEAQGTVPVVENEKPPLPLIRLRVDYTGGYQTENPQRFSNRFVGRVANATDVVQFYLKKKYTRSKRNDGLYTSAVEDIKINSLRVESLVNEYLKTNRLECLPEDSLGEAVVNFVEKDDRDAIKECVETQLNKQINLLVKKRVTEENLEQEISSIINDLPKISTTKRKDYEELPEEVSETSINIAEHTPVLKHTSSLLDHHSPLATSSSEHEMEATPSPALLKKTNKRRELPSSLTKKNTRTPQRSKEVKKVPARKLSQSTKKSDKNTQSTLLFYDPSSTTEAQYLDNEDDEILDD
partner: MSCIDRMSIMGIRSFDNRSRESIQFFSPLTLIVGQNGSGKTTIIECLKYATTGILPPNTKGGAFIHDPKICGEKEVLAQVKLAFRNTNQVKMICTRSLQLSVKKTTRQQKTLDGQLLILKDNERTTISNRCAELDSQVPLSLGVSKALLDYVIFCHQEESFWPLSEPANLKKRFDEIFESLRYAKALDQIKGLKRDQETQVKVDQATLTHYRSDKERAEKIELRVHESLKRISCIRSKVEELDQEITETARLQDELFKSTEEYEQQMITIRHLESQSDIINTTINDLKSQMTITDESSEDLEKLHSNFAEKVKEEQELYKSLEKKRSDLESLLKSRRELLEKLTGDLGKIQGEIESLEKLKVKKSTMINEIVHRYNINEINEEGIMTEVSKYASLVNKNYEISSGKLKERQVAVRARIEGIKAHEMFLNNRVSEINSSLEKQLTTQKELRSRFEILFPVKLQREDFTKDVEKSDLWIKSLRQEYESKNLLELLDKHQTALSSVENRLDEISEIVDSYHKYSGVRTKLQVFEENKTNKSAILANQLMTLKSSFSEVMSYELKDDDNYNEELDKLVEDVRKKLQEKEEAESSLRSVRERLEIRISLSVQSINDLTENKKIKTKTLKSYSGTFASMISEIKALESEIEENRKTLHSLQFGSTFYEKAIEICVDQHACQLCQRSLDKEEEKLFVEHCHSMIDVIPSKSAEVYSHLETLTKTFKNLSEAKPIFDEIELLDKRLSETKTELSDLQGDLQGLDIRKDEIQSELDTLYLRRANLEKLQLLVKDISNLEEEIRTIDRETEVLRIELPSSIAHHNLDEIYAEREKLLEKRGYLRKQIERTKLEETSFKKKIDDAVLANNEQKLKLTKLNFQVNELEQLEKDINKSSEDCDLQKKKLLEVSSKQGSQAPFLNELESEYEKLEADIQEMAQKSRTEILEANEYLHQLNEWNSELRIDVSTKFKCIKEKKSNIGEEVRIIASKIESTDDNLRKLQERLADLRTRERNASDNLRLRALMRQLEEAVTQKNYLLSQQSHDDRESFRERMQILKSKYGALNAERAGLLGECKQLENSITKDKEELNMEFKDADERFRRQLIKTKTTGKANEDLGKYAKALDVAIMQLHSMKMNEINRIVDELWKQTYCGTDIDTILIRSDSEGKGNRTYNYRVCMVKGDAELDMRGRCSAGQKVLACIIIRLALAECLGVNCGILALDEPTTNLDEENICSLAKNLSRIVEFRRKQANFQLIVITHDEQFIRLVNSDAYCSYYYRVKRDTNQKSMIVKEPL

Variants of: B1
Details: with rad50_schpo rad50, Q9UTJ8

| Variant | effect of a mutation on the interaction |
| --- | --- |
| C454R;L455R | disrupting interaction |
| C454R;L455R;C479R;V480R | disrupting interaction |
| C479R;V480R | disrupting interaction |
